B1: MBP (maltose-binding protein):WUS fusion protein (natural protein, Arabidopsis thaliana, UniProt Q9SB92 1-292, looked up)
chain: MEPPQHQHHHHQADQESGNNNNNKSGSGGYTCRQTSTRWTPTTEQIKILKELYYNNAIRSPTADQIQKITARLRQFGKIEGKNVFYWFQNHKARERQKKRFNGTNMTTPSSSPNSVMMAANDHYHPLLHHHHGVPMQRPANSVNVKLNQDHHLYHHNKPYPSFNNGNLNHASSGTECGVVNASNGYMSSHVYGSMEQDCSMNYNNVGGGWANMDHHYSSAPYNFFDRAKPLFGLEGHQEEEECGGDAYLEHRRTLPLFPMHGEDHINGGSGAIWKYGQSEVRPCASLELRLN
notes: WUSCHEL (WUS), Arabidopsis thaliana, At2g17950; cloned into the pMBP-c vector; also called MBP:WUS; MBP-tagged WUS; source: E. coli BL21, purified (amylose resin)
B2: MBP:WOX5 (natural protein, Arabidopsis thaliana, UniProt Q8H1D2 1-182, looked up)
chain: MSFSVKGRSLRGNNNGGTGTKCGRWNPTVEQLKILTDLFRAGLRTPTTDQIQKISTELSFYGKIESKNVFYWFQNHKARERQKRRKISIDFDHHHHQPSTRDVFEISEEDCQEEEKVIETLQLFPVNSFEDSNSKVDKMRARGNNQYREYIRETTTTSFSPYSSCGAEMEHPPPLDLRLSFL
notes: WUSCHEL-RELATED HOMEOBOX 5 (WOX5), Arabidopsis thaliana, At3g11260; cloned into the pMBP-c vector; also called MBP-tagged WOX5; source: E. coli BL21, purified (amylose resin)
B3: MBP:WOX4 (natural protein, Arabidopsis thaliana, UniProt Q6X7J9 1-251, looked up)
chain: MKVHEFSNGFSSSWDQHDSTSSLSLSCKRLRPLAPKLSGSPPSPPSSSSGVTSATFDLKNFIRPDQTGPTKFEHKRDPPHQLETHPGGTRWNPTQEQIGILEMLYKGGMRTPNAQQIEHITLQLGKYGKIEGKNVFYWFQNHKARERQKQKRNNLISLSCQSSFTTTGVFNPSVTMKTRTSSSLDIMREPMVEKEELVEENEYKRTCRSWGFENLEIENRRNKNSSTMATTFNKIIDNVTLELFPLHPEGR
notes: WUSCHEL-RELATED HOMEOBOX 4 (WOX4), Arabidopsis thaliana, At1g46480; cloned into the pMBP-c vector; also called MBP-tagged WOX4; source: E. coli BL21, purified (amylose resin)

Experiments:
[1] = biological target: T1, GST:AtMS2 (Arabidopsis METHIONINE SYNTHASE 2 fused with GST) (Arabidopsis thaliana, UniProt Q9SRV5 1-765); experiment: pull-down; MBP fusions or MBP immobilised on amylose resin, incubated with GST:AtMS2; 50 mM Tris-HCl pH 7.4, 200 mM NaCl, 5.0% glycerol, 1.5% Triton X-100, 10 mM NaF, 1.0 mM Na3VO4, 1.0 mM PMSF; 1.5 h at 4 °C; immunoblot with anti-GST antibody; conditions: both partners purified
T1 construct: METHIONINE SYNTHASE 2 (AtMS2), Arabidopsis thaliana, At3g03780; AtMS2 cDNA cloned into pGEX-4T-1; also called AtMS2 protein fused with GST; AtMS2 in fusion with GST; source: E. coli BL21, purified (glutathione resin)
T1 sequence (looked up): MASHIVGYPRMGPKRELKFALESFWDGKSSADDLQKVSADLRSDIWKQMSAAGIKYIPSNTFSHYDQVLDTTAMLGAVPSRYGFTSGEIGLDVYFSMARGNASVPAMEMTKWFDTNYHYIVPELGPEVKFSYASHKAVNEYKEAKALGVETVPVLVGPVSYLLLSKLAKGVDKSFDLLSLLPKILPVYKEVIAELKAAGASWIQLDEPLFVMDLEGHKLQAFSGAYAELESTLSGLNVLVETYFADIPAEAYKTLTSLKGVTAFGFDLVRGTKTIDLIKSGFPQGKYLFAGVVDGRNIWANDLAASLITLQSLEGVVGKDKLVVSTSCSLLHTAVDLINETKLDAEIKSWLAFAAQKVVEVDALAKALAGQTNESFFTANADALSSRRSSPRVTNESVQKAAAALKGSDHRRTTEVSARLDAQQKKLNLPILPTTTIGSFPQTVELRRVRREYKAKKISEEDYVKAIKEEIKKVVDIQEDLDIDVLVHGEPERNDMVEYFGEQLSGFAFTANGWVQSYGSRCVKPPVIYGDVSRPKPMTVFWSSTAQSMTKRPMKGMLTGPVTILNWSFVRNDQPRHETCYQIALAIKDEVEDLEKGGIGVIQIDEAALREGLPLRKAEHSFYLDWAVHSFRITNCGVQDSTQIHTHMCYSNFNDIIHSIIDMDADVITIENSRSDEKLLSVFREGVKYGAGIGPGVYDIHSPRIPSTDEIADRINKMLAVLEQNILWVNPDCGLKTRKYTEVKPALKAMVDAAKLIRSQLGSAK

MBP:AtMS2 = biological target: T2, MBP:AtMS2 (Arabidopsis thaliana, UniProt Q9SRV5 1-765); experiment: native gel or EMSA; super shift of a Texas red-labeled WUS or WOX5 promoter probe; 20 uL binding buffer (10 mM Hepes-KOH pH 7.8, 20 mM KCl, 10 mM MgCl2, 1 mM DTT, 0.1% BSA, 5% glycerol, 0.5% Triton-X100, 20 ng/uL salmon sperm DNA), 22 °C, 30 min; 6% polyacrylamide gel; conditions: both partners purified
T2 construct: METHIONINE SYNTHASE 2 (AtMS2), Arabidopsis thaliana, At3g03780; cloned into the pMBP-c vector; source: E. coli BL21, purified (amylose resin)
T2 sequence (looked up): T1 sequence (looked up)

Binder | binding result [1] | binding result (MBP:AtMS2)
B1 | binds | binds
B2 | binds | binds
B3 | binds | 
